# Article PMC2710861
# T1: Rad52 (human, UniProt P43351 1-418)
# T1 sequence: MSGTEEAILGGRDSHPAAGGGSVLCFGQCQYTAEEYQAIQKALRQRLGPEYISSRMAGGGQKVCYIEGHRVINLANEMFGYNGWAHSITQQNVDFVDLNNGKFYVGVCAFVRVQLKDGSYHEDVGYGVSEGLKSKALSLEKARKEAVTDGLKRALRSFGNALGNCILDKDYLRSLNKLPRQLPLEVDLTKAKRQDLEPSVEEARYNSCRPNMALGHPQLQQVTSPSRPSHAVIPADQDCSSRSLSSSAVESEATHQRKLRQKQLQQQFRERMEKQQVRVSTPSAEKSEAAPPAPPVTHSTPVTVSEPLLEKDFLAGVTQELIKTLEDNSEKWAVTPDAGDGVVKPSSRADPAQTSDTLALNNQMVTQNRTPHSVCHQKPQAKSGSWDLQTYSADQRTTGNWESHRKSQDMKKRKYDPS
# B1: 25-mer mixed sequence ssDNA, 3'-biotin (ssDNA)
# DNA: GCTAGCTCAATTCATCGACAAACCT
# B2: 44-mer mixed sequence ssDNA (ssDNA)
# DNA: GCTAGCTCAATTCATCGACAAACCTCCTCGCTCAATTCATAGTC
# B3: 25-mer mixed sequence ssDNA, 5'-biotin (ssDNA)
# DNA: GCTAGCTCAATTCATCGACAAACCT
# How the values were obtained:
# Rad52 [1] = target: T1, Rad52; assay: UV cross-linking
# [2] = target: RPA heterotrimer (RPA70/RPA32/RPA14);Rad52 (human;human, UniProt P27694;P15927;P35244;P43351 1-616;1-270;1-121;1-418, |); assay: SEC-MALS and UV cross-linking
# RPA heterotrimer (RPA70/RPA32/RPA14);Rad52, sequence (P27694 whole entry, chain 1 of 3): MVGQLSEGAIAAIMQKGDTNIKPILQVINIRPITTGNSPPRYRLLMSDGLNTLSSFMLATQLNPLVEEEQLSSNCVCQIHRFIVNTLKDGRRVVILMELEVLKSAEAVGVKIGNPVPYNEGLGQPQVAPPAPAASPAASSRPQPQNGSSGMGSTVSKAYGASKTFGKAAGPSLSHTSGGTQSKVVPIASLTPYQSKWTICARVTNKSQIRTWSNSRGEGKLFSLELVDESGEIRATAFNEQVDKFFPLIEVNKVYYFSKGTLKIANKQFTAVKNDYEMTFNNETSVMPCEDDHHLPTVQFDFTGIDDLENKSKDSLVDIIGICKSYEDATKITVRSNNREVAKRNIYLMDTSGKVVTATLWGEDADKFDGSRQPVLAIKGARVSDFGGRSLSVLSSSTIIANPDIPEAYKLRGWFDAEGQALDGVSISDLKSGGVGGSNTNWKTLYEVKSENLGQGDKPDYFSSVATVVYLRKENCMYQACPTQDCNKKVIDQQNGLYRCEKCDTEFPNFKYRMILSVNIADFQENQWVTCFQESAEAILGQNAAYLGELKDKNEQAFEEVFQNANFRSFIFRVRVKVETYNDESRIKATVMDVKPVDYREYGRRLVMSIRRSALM
# RPA heterotrimer (RPA70/RPA32/RPA14);Rad52, sequence (P15927 whole entry, chain 2 of 3): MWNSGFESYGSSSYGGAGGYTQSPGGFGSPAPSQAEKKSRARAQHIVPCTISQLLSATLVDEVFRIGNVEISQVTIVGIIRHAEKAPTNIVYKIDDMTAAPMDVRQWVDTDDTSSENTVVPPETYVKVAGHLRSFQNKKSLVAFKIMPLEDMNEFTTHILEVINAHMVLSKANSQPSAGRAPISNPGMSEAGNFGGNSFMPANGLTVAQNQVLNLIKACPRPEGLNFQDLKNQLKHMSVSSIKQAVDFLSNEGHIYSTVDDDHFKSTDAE
# RPA heterotrimer (RPA70/RPA32/RPA14);Rad52, sequence (P35244 whole entry, chain 3 of 3): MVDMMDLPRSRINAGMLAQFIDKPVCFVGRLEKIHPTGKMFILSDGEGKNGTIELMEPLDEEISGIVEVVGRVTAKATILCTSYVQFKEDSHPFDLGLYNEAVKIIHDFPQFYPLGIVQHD
# [3] = target: RPA heterotrimer (RPA70/RPA32/RPA14) (human, UniProt P27694;P15927;P35244 1-616;1-270;1-121); assay: EMSA
# RPA heterotrimer (RPA70/RPA32/RPA14), sequence (P27694 whole entry, chain 1 of 3): as the sequence (P27694 whole entry, chain 1 of 3) above
# RPA heterotrimer (RPA70/RPA32/RPA14), sequence (P15927 whole entry, chain 2 of 3): as the sequence (P15927 whole entry, chain 2 of 3) above
# RPA heterotrimer (RPA70/RPA32/RPA14), sequence (P35244 whole entry, chain 3 of 3): as the sequence (P35244 whole entry, chain 3 of 3) above
# Rad52 [4] = target: T1, Rad52; assay: SEC-MALS
# Rad52 [5] = target: T1, Rad52; assay: EMSA
binder,measurement,setting,value
B1,binding result,Rad52 [1],binds
same,binding result,[2],binds
same,binding result,[3],binds
B2,binding result,Rad52 [4],binds
B3,binding result,Rad52 [5],binds
